The target in assay [1] is T1, Recombinant human TSLP-his (human, UniProt Q969D9 29-159).
T1 construct: Prepared in-house; Amine-coupled to CM5 chip in SPR, loaded on APS sensors in Octet, biotin-labeled in the capture ELISA, unlabeled in the cell functional assays; also called human TSLP-his protein
As to the kind of experiment: SPR, Biacore T200; protocol of Example 2. On the technique in general: In SPR one partner is held on a chip, and binding of the other changes the refractive index at the surface.
Protocol: (§1) Briefly, Biosion in house synthesized recombinant human TSLP-his (SEQ ID NO.: 28) or cynomolgus monkey TSLP-his protein (SEQ ID NO.: 29) in CH₃COONa buffer (provided by Biocore) at the concentration of 10 μg/mL was covalently linked to a CM5 chip (carboxy methyl dextran coated chip from GE healthcare #BR100530) via primary amines, using a standard amine coupling kit provided by Biacore (GE healthcare, Pittsburgh, Pa., USA). Un-reacted moieties on the biosensor surface were blocked with ethanolamine. […] The antigen-antibody association kinetics was followed for 4 minutes and the dissociation kinetics was followed for 13 minutes. The association and dissociation curves were fit to a 1:1 Langmuir binding model using BIAcore evaluation software, and the KD, Kₐ and Kd values were determined and shown in Table 2 below.

Assay [2] deals with T1, Recombinant human TSLP-his. As to the kind of experiment: SPR, Biacore T200; below the instrument limit, roughly calculated from the sensorgram.
Protocol: as §1
The target in assay [3] is T1, Recombinant human TSLP-his. The assay is described as follows: SPR, Biacore T200; TSLP-his amine-coupled to CM5 chip, antibody as analyte; 1:1 Langmuir fit.
Protocol: as §1

Where only a bound is given, the exact number is not on record here.

B1: hu1C5F12E9-V16 (antibody, human IgG4 S228P, kappa, V domains shown)
VH: QVQLVQSGAEVKKPGASVKVSCKASGYTFTTYWMHWVRQAPGQGLEWMGVIDPSDSDTTYNQKFKGRATMTRDTSTSTVYMELSSLRSEDTAVYYCTRSLDGYYDYWGQGTLVTVSS
VL: DIQMTQSPSSLSASVGDRVTITCRPTENIYSYLAWYQQKPGKSPKLLIYFARTLAEGVPSRFSGSGSGTDFTLTISSLQPEDFATYYCQHHYGTPWTFGGGTKVEIKR
A word on the Kd: it is the concentration at which binding is half-saturated. The koff is the first-order rate constant of dissociation. The term kon denotes the rate constant with which the complex forms. Consider B1, for which, in assay [1], the Kd was less than 0.0962 nM, the koff is less than 1e-05 s⁻¹ and the kon was found to be 104000 M⁻¹ s⁻¹. For the same molecule, in assay [2], the koff is approximately 1.17e-06 s⁻¹.

B2: hu1C5F12E9-V1 (antibody, human IgG4 S228P, kappa, V domains shown)
VH: QVQLVQSGAEVKKPGASVKVSCKASGYTFTTYWMHWVRQAPGQGLEWIGVIDPSDSDTTYNQKFKGRATLTVDTSSSTAYMELSSLRSEDTAVYYCTRSLDGYYDYWGQGTLVTVSS
VL: DIQMTQSPSSLSASVGDRVTITCRPTENIYSYLAWYQQKPGKSPKLLVYFARTLAEGVPSRFSGSGSGTDFTLTISSLQPEDFATYYCQHHYGTPWTFGGGTKVEIKR
In the case of B2, in assay [1], the Kd was less than 0.101 nM, the koff is less than 1e-05 s⁻¹ and the kon came to 99300 M⁻¹ s⁻¹. In addition, the koff in assay [2] is less than 1e-05 s⁻¹.

B3: hu1C5F12E9-V3 (antibody, human IgG4 S228P, kappa, V domains shown)
VH: QVQLVQSGAEVKKPGASVKVSCKASGYTFTTYWMHWVRQAPGQGLEWMGVIDPSDSDTTYNQKFKGRVTMTVDTSTSTVYMELSSLRSEDTAVYYCTRSLDGYYDYWGQGTLVTVSS
VL: DIQMTQSPSSLSASVGDRVTITCRPTENIYSYLAWYQQKPGKSPKLLVYFARTLAEGVPSRFSGSGSGTDFTLTISSLQPEDFATYYCQHHYGTPWTFGGGTKVEIKR
In the case of B3, in assay [1], the Kd was less than 0.0971 nM, the koff is less than 1e-05 s⁻¹ and the kon came to 103000 M⁻¹ s⁻¹. Further, the koff in assay [2] was less than 1e-05 s⁻¹.

B4: 1F5H12D7 (antibody, V domains shown)
VH: QVQLQQPGTELVKPGASVKMSCKASGYTFTTYWMHWVKQRPGQGLEWIGVIDPSDSDTTYNQKFKGKATLTVDTSSSTAYMQLSSLTSEDSAVYYCTRSLDGYYDYWGQGTTLTVSS
VL: DIQMTQSPASLSASVGETVTITCRPTENIYSYLAWYQQKQGKSPHLLVYFARTLAEGVPSRFSGSGSGTQFSLKINSLQPEDFGIYYCQHHYGTPWTFGGGTKLEIK
Regarding B4, in assay [3], the Kd is less than 0.112 nM, the koff is less than 1e-05 s⁻¹ and the kon amounted to 89700 M⁻¹ s⁻¹.

B5: 1G2H12A1 (antibody, V domains shown)
VH: QVQLQQPGTELVKPGASVKMSCKASGYTFTTYWMHWVKQRPGQGLEWIGVIDPSDSDTTYNQKFKGKATLTVDTSSSTAYMQLSSLTSEDSAVYYCTRSLDGYYDYWGQGTTLTVSS
VL: DIQMTQSPASLSASVGETVTITCRPTENIYSYLAWYQQKQGKSPHLLVYFARTLAEGVPSRFSGSGSGTQFSLKINSLQPEDFGIYYCQHHYGTPWTFGGGTKLEIK
notes: Mouse hybridoma mAb
For the molecule B5, in assay [3], the Kd was less than 0.117 nM, the koff is less than 1e-05 s⁻¹ and the kon was determined as 85200 M⁻¹ s⁻¹.

B6: 1G3B9B1 (antibody, V domains shown)
VH: QVQLQQPGTELVKPGASVKMSCKASGYTFTTYWMHWVKQRPGQGLEWIGVIDPSDSDTTYNQKFKGKATLTVDTSSSTAYMQLSSLTSEDSAVYYCTRSLDGYYDYWGQGTTLTVSS
VL: DIQMTQSPASLSASVGETVTITCRPTENIYSYLAWYQQKQGKSPHLLVYFARTLAEGVPSRFSGSGSGTQFSLKINSLQPEDFGIYYCQHHYGTPWTFGGGTKLEIK
notes: Mouse hybridoma mAb
For B6, in assay [3], the Kd is less than 0.107 nM, the koff was less than 1e-05 s⁻¹ and the kon is 93600 M⁻¹ s⁻¹.

B7: 1H3F11B7 (antibody, V domains shown)
VH: QVQLQQPGTELVKPGASVKMSCKASGYTFTTYWMHWVKQRPGQGLEWIGVIDPSDSDTTYNQKFKGKATLTVDTSSSTAYMQLSSLTSEDSAVYYCTRSLDGYYDYWGQGTTLTVSS
VL: DIQMTQSPASLSASVGETVTITCRPTENIYSYLAWYQQKQGKSPHLLVYFARTLAEGVPSRFSGSGSGTQFSLKINSLQPEDFGIYYCQHHYGTPWTFGGGTKLEIK
notes: Mouse hybridoma mAb
For B7, in assay [3], the Kd is less than 0.108 nM, the koff was less than 1e-05 s⁻¹ and the kon stood at 92900 M⁻¹ s⁻¹.

Values taken from patent publication US20220289833A1 (BIOSION, published 2022).
